Experimental data from paper PMC5882628, “Development of a Cell-Based Assay to Assess Binding of the proNGF Prodomain to Sortilin” (Cellular and Molecular Neurobiology, 2017).
Entries after “also recorded” stand apart in the source; their conditions may differ.

Legend:
sortilin = target: T1, sortilin (Homo sapiens, UniProt Q99523); experiment: Cell-based assay of GSTpro (NGF prodomain) binding/uptake, wt sortilin-transfected HEK293 cells, sortilin/GST double stain, high content imaging, with detergent; conditions: for signal and assay window, GSTpro compared to proNGF (in words): Fig. 3u, sortilin-transfected cells
T1 construct: They were transfected with plasmids either encoding wild type sortilin, or sortilin with a mutation that renders it endocytosis deficient; expressed in transfected cells; host or cells: HEK 293 cells, transient transfection (lipofectamine)
T1 sequence (Q99523 78-831): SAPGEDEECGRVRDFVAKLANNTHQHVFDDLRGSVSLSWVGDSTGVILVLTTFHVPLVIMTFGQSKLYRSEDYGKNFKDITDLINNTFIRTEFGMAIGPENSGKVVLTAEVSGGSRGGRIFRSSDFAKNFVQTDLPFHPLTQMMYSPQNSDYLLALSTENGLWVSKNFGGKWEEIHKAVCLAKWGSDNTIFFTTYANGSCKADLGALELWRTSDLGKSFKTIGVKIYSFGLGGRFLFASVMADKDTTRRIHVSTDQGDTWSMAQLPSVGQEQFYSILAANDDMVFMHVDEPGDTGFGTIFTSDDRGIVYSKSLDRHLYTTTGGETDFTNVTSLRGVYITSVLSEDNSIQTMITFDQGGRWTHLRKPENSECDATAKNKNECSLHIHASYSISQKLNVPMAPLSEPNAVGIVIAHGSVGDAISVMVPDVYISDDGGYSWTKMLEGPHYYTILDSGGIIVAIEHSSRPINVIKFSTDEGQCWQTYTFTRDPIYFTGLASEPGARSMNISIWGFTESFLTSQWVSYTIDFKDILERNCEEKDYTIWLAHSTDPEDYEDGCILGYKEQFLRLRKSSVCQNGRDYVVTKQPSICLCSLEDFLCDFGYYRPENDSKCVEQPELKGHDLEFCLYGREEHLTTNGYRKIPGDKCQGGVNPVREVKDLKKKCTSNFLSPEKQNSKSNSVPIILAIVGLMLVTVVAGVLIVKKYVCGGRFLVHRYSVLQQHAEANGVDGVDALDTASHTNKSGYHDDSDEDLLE
Procedure: HEK 293 cells were grown in DMEM with 10% fetal bovine serum. They were transfected with plasmids either encoding wild type sortilin, or sortilin with a mutation that renders it endocytosis deficient, or an empty control vector according to manufacturer’s instructions using 20 µg lipofectamine (Thermo Fischer Scientific) with 8 µg DNA on […] per 6 cm, poly-lysine coated dish. The cells were initially plated into 24-well dishes after transfection. That intermediate step rendered more uniform cell numbers in the 96-well dishes that were used to run the actual assay. 24 h later, cells were split into black opaque-walled, clear-bottom 96 well dishes at 42000 cells in 80 µl medium/well. […] 1 h after that treatment, the medium was replaced with 80 µl medium containing the same antibody, compounds or peptides included in the preincubation medium, plus recombinant GSTpro or proNGF (either purified in-house from recombinant HEK cells or derived from an E.coli expression system at either 0 nM (negative control), or 50 nM, or, in a few instances at 5 or 10 nM. The respective concentrations are indicated in the figures 45 min after adding GSTpro or proNGF, cells were washed twice with prewarmed PBS and fixed in 4% PFA for 20 min at approximately 20 °C.
The fixed cells were washed with PBS for 15 min, followed by two 15 min washes with PBS with 0.1% Triton X-100. […] Wells to be evaluated for blocking of the sortilin-GSTpro interaction by antibodies were only stained with an antibody against the pro domain of proNGF in 10% FBS at a dilution of 1:1500 (Millipore (N-term) clone EPI318Y, Rabbit Monoclonal Antibody Catalog Number: #04-1142). […]
The following day, wells were washed 3 × 15 min with PBS/0.1% Triton X-100. […] Cellular fluorescence was quantified using an array scanner and the “Neuronal Profiler” Bioapplication (Thermo Fisher Scientific) as described below.
Sortilin-GSTpro interaction was also assessed using HEK cell derived cell lines stably expressing sortilin. […]
Images from 96 well dishes were automatically recorded with a Cellomics ArrayScan VTI HCS Reader (Thermo Scientific) using a 10× microscope objective and the build-in standard autofocus method. Fifteen 1024 × 1024 images in 4 channels (Channel 1 and 2: Filter XF5–Hoechst, to detect nuclei and all cells; Channel 3: XF53-Texas Red to detect, e.g., sortilin-positive cells; Channel 4: Filter XF93 – FITC, to detect cells positive, e.g., for the proNGF pro domain) were recorded per 96 well.
The images were analyzed with the Cellomics assay algorithm NeuronalProfiling.V3.5.

[1] = Precipitation and sticking to culture dishes; reagent stability; assay type: physicochemical; conditions: GSTpro versus proNGF
Source text: This behavior led to more diffuse staining compared to GSTpro. […] Given the complications driven by the biophysical properties of proNGF, we pursued GSTpro as a source of the pro binding domain.
Due to reasons of stability of the proNGF protein and the specificity of binding, we recommend use of GSTpro in the assay, rather than recombinant proNGF. […] Although not formally tested by us, there may have been inconsistencies in the batches of proNGF protein used in the studies. As extracellular fluorescence could increase false positive cells by automated detection, proNGF was less reliable as a reagent in our assay (not shown). Both GSTpro and proNGF compete for binding to the sortilin receptor, it is likely that their binding sites are similar or at least overlap. Detection with GSTpro was more specific than with proNGF. […] The assay has the potential to use a tenfold lower concentration of GSTpro (5 nM, cf. Fig. 6v).

B1: GSTpro: fusion of Glutathione S-transferase (GST) merged at the C-terminal of GST to the pro part (19–121) of human proNGF (protein)
chain: EPHSESNVPAGHTIPQAHWTKLQHSLDTALRRARSAPAAAIAARVAGQTRNITVDPRLFKKRRLRSPRVLFSTQPPREAADTQDLDFEVGGAAPFNRTHRSKR
modifications: left off: GST, N-terminal, kept
notes: fusion of Glutathione S-transferase (GST) merged at the C-terminal of GST to the pro part (19–121) of human proNGF
sortilin
  signal and assay window, GSTpro compared to proNGF (in words): substantially larger compared to proNGF
sortilin; listed as GST-pro
  signal and assay window, GSTpro compared to proNGF (in words): larger signal and assay window
sortilin; Figs. 3, 4b, 6, 7, 8
  GSTpro signal, sortilin-positive versus sortilin-negative (or control-transfected) cells (in words): highly enhanced GSTpro uptake or binding; also recorded: several fold higher GSTpro signal in sortilin-positive cells
[1]
  stability compared to proNGF (in words): more stable than proNGF
